The results in this text go back to paper PMC6053526, “Arabidopsis WRKY50 and TGA Transcription Factors Synergistically Activate Expression of PR1”.

Data set [1] deals with T1, GST-AtWRKY50-C (Arabidopsis thaliana, UniProt Q8VWQ5 86-173). Description: EMSA; 5x buffer (3 uL in 14 uL): 20% glycerol, 5 mM MgCl2, 2.5 mM EDTA, 2.5 mM DTT, 250 mM NaCl, 50 mM Tris-HCl pH 7.5, 0.25 mg/ml poly(dI-dC); 0.5 ug protein; 10 min RT, then 60 min on ice with probe; gel at 4 C. The note with it: protein: recombinant, tags: GST (N-term), label: 32P. (Mobility shift assays separate free from complexed probe on a gel.)

The target in data set [2] is T2, TGA2-His (Arabidopsis thaliana, UniProt P43273 1-330).
T2 sequence: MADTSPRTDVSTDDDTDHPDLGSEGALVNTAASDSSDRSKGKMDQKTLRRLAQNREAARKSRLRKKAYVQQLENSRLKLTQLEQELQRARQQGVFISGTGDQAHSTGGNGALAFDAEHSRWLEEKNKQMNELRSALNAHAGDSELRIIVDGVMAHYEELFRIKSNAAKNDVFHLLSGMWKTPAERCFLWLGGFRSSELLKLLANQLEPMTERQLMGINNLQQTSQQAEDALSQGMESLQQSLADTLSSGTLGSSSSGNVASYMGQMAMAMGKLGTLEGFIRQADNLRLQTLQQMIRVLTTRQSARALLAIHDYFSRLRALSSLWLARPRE
Nature of the data set: EMSA; shift increased by full-length AtWRKY50; 5x buffer (3 uL in 14 uL): 20% glycerol, 5 mM MgCl2, 2.5 mM EDTA, 2.5 mM DTT, 250 mM NaCl, 50 mM Tris-HCl pH 7.5, 0.25 mg/ml poly(dI-dC); 0.5 ug protein; 10 min RT, then 60 min on ice with probe; gel at 4 C. The note with it: protein: recombinant; tags: His; chain copies: 2; label: 32P; blunt.

For data set [3], the target named is T1, GST-AtWRKY50-C. Description: EMSA; as wild type D; 5x buffer (3 uL in 14 uL): 20% glycerol, 5 mM MgCl2, 2.5 mM EDTA, 2.5 mM DTT, 250 mM NaCl, 50 mM Tris-HCl pH 7.5, 0.25 mg/ml poly(dI-dC); 0.5 ug protein; 10 min RT, then 60 min on ice with probe; gel at 4 C. The note with it: protein: recombinant; tags: GST (N-term); label: 32P; 5' overhang 3 nt (GGG) both ends.

The target of data set [4] is T2, TGA2-His. Nature of the data set: EMSA; 5x buffer (3 uL in 14 uL): 20% glycerol, 5 mM MgCl2, 2.5 mM EDTA, 2.5 mM DTT, 250 mM NaCl, 50 mM Tris-HCl pH 7.5, 0.25 mg/ml poly(dI-dC); 0.5 ug protein; 10 min RT, then 60 min on ice with probe; gel at 4 C. The note with it: protein: recombinant; tags: His; chain copies: 2; label: 32P; blunt.
The target in data set [5] is T1, GST-AtWRKY50-C. Description: EMSA; enhanced vs fragment A; 5x buffer (3 uL in 14 uL): 20% glycerol, 5 mM MgCl2, 2.5 mM EDTA, 2.5 mM DTT, 250 mM NaCl, 50 mM Tris-HCl pH 7.5, 0.25 mg/ml poly(dI-dC); 0.5 ug protein; 10 min RT, then 60 min on ice with probe; gel at 4 C. The note with it: protein: recombinant; tags: GST (N-term); label: 32P; 5' overhang 3 nt (GGG) both ends.

T1 sequence (Q8VWQ5 86-173): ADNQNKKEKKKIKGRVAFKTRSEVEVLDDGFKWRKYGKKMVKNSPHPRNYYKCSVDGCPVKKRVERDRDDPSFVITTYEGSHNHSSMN

B1: Am2 (dsDNA)
DNA 1: GGGGGTGATCTATTGACTGCCTCTCTACGTCACTA
DNA 2: GGGTAGTGACGTAGAGAGGCAGTCAATAGATCACC
With B1, the binding result in data set [1] (5' overhang 3 nt (GGG) both ends) was “no binding”.

B2: fragment B (dsDNA)
DNA 1: TTTCTCTACGTCACTATTTTACTTACGTCATA
DNA 2: TATGACGTAAGTAAAATAGTGACGTAGAGAAA
On to B2, for which the binding result in data set [2] was “binds”.

B3: Dm2 (dsDNA)
DNA 1: GGGGATGTGGCGGCATATATTCCCCAGGACTTTTC
DNA 2: GGGGAAAAGTCCTGGGGAATATATGCCGCCACATC
In the case of B3, the binding result in data set [3] is “binds”.

B4: fragment D (dsDNA)
DNA 1: GATGTGGCGGCATATATTCTTCAGGACTTTTC
DNA 2: GAAAAGTCCTGAAGAATATATGCCGCCACATC
Take B4: the binding result in data set [1] (blunt) is “binds”.

B5: fragment A (dsDNA)
DNA 1: GGTGATCTATTGACTGTTTCTCTACGTCACTA
DNA 2: TAGTGACGTAGAGAAACAGTCAATAGATCACC
Consider B5, for which the binding result in data set [4] was “no binding”; in data set [1] (blunt), “binds”.

B6: fragment C (dsDNA)
DNA 1: TTTTACTTACGTCATAGATGTGGCGGCATATA
DNA 2: TATATGCCGCCACATCTATGACGTAAGTAAAA
For B6, the binding result in data set [2] is “binds”.

B7: Am1 (dsDNA)
DNA 1: GGGGGTGATCTATTGACTTTTCTCTACGTCACTAT
DNA 2: GGGATAGTGACGTAGAGAAAAGTCAATAGATCACC
For the molecule B7, the binding result in data set [5] was “binds”.
